Assay results taken from patent CN117186235A (SHANGHAI HUAIYUE BIOLOGICAL TECH CO LTD, dated 2023).

Assays:
人4-1BB-hFc蛋白 = biological target: T1, 人4-1BB-hFc蛋白 (human, UniProt Q07011 24-186); experiment: ELISA, plate coated with human 4-1BB-hFc at 1.0 μg/mL, HRP secondary antibody
T1 construct: extracellular domain; The coated protein of the ELISA is called 人4-1BB-hFc蛋白; also called h4-1BB蛋白; 4-1BB重组蛋白; not shown: human IgG Fc fragment (hFc) of the pCpC vector

[1] = biological target: T2, 人源EGFRvIII (CHO-K1细胞表面表达) (human, UniProt P00533 25-1210); experiment: FACS on CHO-K1 cells expressing human EGFRvIII, FITC anti-human IgG Fc
T2 construct: whole, on cells; Stably expressed on CHO-K1 cells; It is a deletion variant of EGFR and not the wild type; also called hEGFRvIII; CHO-K1-hEGFRvIII

人4-1BB (CHO-K1细胞表面表达) = biological target: T3, 人4-1BB (CHO-K1细胞表面表达) (human, UniProt Q07011 24-255); experiment: FACS on CHO-K1 cells expressing human 4-1BB, FITC anti-human IgG Fc
T3 construct: whole, on cells; Stably expressed on CHO-K1 cells for FACS; also called h4-1BB; CHO-K1-h4-1BB
T3 sequence (Q07011 24-255): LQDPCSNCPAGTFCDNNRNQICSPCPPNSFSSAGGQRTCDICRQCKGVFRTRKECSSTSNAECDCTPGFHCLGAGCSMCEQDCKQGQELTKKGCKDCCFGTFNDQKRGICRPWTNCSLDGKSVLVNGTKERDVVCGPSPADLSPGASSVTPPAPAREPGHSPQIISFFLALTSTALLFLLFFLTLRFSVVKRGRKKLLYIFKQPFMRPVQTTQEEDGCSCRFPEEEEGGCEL

B1: 抗4-1BB抗体PE0116全长抗体 (antibody, V domains shown)
VH: QVQLVESGGGVVQPGRSLRLSCAASGLTFSSYGMHWVRQAPGKGLEWVAVIWYDGSNKYYADSVKGRFTISRDNSKNTLYLQMNSLRAEDTAVYYCAREEVLWFGELSYNYYYGMDVWGQGTTVTVSS
VL: DIQMTQSPSSLSASVGDRVTITCRASQGISNYLAWYQQKPGKVPKLLIYAASTLQSGVPSRFSGSGSGTDFTLTISSLQPEDVATYYCQKYNSVPLTFGGGTKVEIK
notes: Fully human antibody from Harbour transgenic mice; the bispecific uses it as IgG4; also called HY0101; PE0016
B1: binds (人4-1BB-hFc蛋白).

B2: 抗4-1BB/抗EGFRvIII双特异抗体HY1001007 (bispecific antibody, IgG4)
heavy (part 1 of 2): QVQLVESGGGVVQPGRSLRLSCAASGLTFSSYGMHWVRQAPGKGLEWVAVIWYDGSNKYYADSVKGRFTISRDNSKNTLYLQMNSLRAEDTAVYYCAREEVLWFGELSYNYYYGMDVWGQGTTVTVSS
heavy (part 2 of 2): GGGGSGGGGSGGGGSEIVLTQSPATLSLSPGERATLSCRASSSVSSSYLHWYQQKPGQAPRLLIYSTSNLAAGIPARFSGSGSGTDFTLTISSLEPEDFAVYYCQQYSGYPLTFGGGTKVEIKGGGGSGGGGSGGGGSQVQLVQSGAEVKKPGASVKVSCKASGYTFTDYNMDWVRQAPGQGLEWMGDINPNNADTIYNQKFKGRVTMTRDTSTSTVYMELSSLRSEDTAVYYCARGDYDGYYPVYYAMDYWGQGTTVTVSS
light: DIQMTQSPSSLSASVGDRVTITCRASQGISNYLAWYQQKPGKVPKLLIYAASTLQSGVPSRFSGSGSGTDFTLTISSLQPEDVATYYCQKYNSVPLTFGGGTKVEIK
notes: IgG-scFv format: PE0116 IgG4 with the 043-1 VL-VH scFv fused to the C-terminus of the heavy chain (PE0116VH-CH-043-1VLVH); also called CH-scFv(043-1VLVH)-IgG4(PE0116); not shown: human IgG4 heavy chain constant region (from the expression vector); human light chain constant region of the expression vector; kappa or lambda not
B2: binds [1]; binds (人4-1BB (CHO-K1细胞表面表达)).
